{"source": "the nanobody polyreactivity screen of Harvey et al. (2022)"}
{"assay": "yeast display, Sf9 membrane polyspecificity reagent, FACS + sequencing; frameworks hold sequencing errors", "summary_of_the_method": "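A synthetic nanobody library was expressed on Saccharomyces cerevisiae BJ5465 by galactose induction for 36–48 hours. The library was stained for 1 hour at 4 °C with 10% biotinylated, detergent-solubilized Sf9 membrane reagent and enriched with streptavidin microbeads before FACS. Low and high (top ~1%) gates were set on anti-HA fluorescence for expression and streptavidin fluorescence for reagent binding, and each polyreactivity label reflects the gate of origin.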"}
{"sequence": "QVQLVESGGGLVQAGGSLRLSCAASGITFSGNAMGWYRQAPGKERELVAAISGRGGSTYYADSVKGRFTISRDNAKNTVYLQMNSLKPEDTAVYYCAARVPSPYVATYYYWGQGTQVTVSS", "polyreactivity (PSR sort gate)": "high polyreactivity"}
{"sequence": "QVQLVESGGGLVQAGGSLRLSCAASGITFSHNAMGWYRQAPGKERELVAAITRSGGSTYYADSVKGRFTISRDNAKNTVYLQMNSLKPEDTAVYYCATEDYYRQYGYWSLSRMDHWGQGTQVTVSS", "polyreactivity (PSR sort gate)": "low polyreactivity"}
{"sequence": "QVQLVESGGGLVQAGGSLRLSCAASGITFSLYAMGWYRQAPGKERELVAAITRSGGSTYYADSVKGRFTISRDNAKNTVYLQMNSLKPEDTAVYYCAALRPGVRRYYYWGHGTQVTVSS", "polyreactivity (PSR sort gate)": "high polyreactivity"}
{"sequence": "QVQLVESGGGLVQAGGSLRLSCAASGITFSRNAMGWYRQAPGKERELVAVISTRGGRTYYADSVKGRFTISRDNAKNTFYLQMNSLKPEDTAVYYCAASPDPYWRRMDYWGQGTQVTVSS", "polyreactivity (PSR sort gate)": "high polyreactivity"}
{"sequence": "QVQLVESGGGLVQAGGSLRLSCAASGITFSRNGMGWYRQAPGKERELVAAISTSGDSTDYADSVKGRFTISRDNAKNTVYLQMNSLKPEDTAVYYCAASYAFLYYGYDSWGQGTQVTVSS", "polyreactivity (PSR sort gate)": "low polyreactivity"}
{"sequence": "QVQLVESGGGLVQAGGSLRLSCAASGITFSRNTMGWYRQGPGKERELVAAITYSGGRTYYADSVKGRFTISRDNAKNTVYLQMNSLKPEDTAVYYCARRGTGKYPYYQHYYWGQGTQVTVSS", "polyreactivity (PSR sort gate)": "high polyreactivity"}
{"sequence": "QVQLVESGGGLVQAGGSLRLSCAASGITFSRNVMGWYRQAPGKERELVAAISRSGGRTYYADSVKGRLTISRDNAKNTVYLQMNSLKPEDTAVYYCNRDIGGTSVLDDYWGQGTQVTVSS", "polyreactivity (PSR sort gate)": "low polyreactivity"}
{"sequence": "QVQLVESGGGLVQAGGSLRLSCAASGITFSRYAMGWYRQAPGKERELVAAITWDGGRTYYADSVKGRFTISRDNAKNTVYLQMNSLKPEDTAVYYCAASRYSPVRWVWLYYWGQGTQVTVSS", "polyreactivity (PSR sort gate)": "high polyreactivity"}
{"sequence": "QVQLVESGGGLVQAGGSLRLSCAASGITFSYNAMGWDRQAPGKERELVAAISSNSDSTYYADSVKGRFTISRDNAKNTVYLQMNSLKPEDTAVYYCAADTPDAPDYSGFYYWGQGTQVTVSS", "polyreactivity (PSR sort gate)": "low polyreactivity"}
{"sequence": "QVQLVESGGGLVQAGGSLRLSCAASGITFSYNAMGWYRQAPGKEREFVAAISSNSDSTYYADSVKGRFTISRDTAKITVYLQMNSLKPEDTAVYYCAADTPDAPDYSGFYYWGQGTQVTVSS", "polyreactivity (PSR sort gate)": "low polyreactivity"}
{"sequence": "QVQLVESGGGLVQAGGSLRLSCAASGITFSYNAMGWYRQAPGKERELVAAIRVGDGSTYYADSVKGRFTISRDNAKNTVYLQMNSLKPEDTAVNYCNARYLRLRYPYTDEYNYWGQGTQVTVSS", "polyreactivity (PSR sort gate)": "low polyreactivity"}
{"sequence": "QVQLVESGGGLVQAGGSLRLSCAASGITFSYYAMGWYRPAPGKERELVAAISRTGTSTYYADSVKGRFTISRDNAKNTVYFQMNSLKPEDTAVYYCAAVPRHPYHDKYDYWGQGTQVTVSS", "polyreactivity (PSR sort gate)": "high polyreactivity"}
{"sequence": "QVQLVESGGGLVQAGGSLRLSCAASGITFSYYAMGWYRQAPGKEREFVAAISWSGGSTYYADSVKGRFTISRDNAKNTVYLQMNSLKPEDTAVYYCAADRYPYGLDYWGQGTQVTVSS", "polyreactivity (PSR sort gate)": "high polyreactivity"}
{"sequence": "QVQLVESGGGLVQAGGSLRLSCAASGITFSYYAMGWYRQAPGKERELVAAISRTGTSTYYADSVKGRFTISRDNAKNTVYLQMKSLKPEDTAVYDCAAVPRHPYHDKYDYWGQGTQVTVSS", "polyreactivity (PSR sort gate)": "high polyreactivity"}
{"sequence": "QVQLVESGGGLVQAGGSLRLSCAASGITFTDYAMGWYRQAPGKERELVAAITGSGTSTYYADSVKGRFTISRDNAKNTVYLQMNSLKPEDTAVYYCAARTRGTAYNYWGQGTQVTVSS", "polyreactivity (PSR sort gate)": "high polyreactivity"}
{"sequence": "QVQLVESGGGLVQAGGSLRLSCAASGITFTDYDMGWYRQAPGKERELVAAISNGGGSTYYADSVKGRFTISRDNAKNTVYLQMYSMKPEDTAVYYCAAERVPSWWVEWGVAQWDDYWGQGTQVTVSS", "polyreactivity (PSR sort gate)": "low polyreactivity"}
{"sequence": "QVQLVESGGGLVQAGGSLRLSCAASGITFTGFAMGWYRQAPGKERELVAAITWSSGSTYYADSVKGRFTISRDNAKNTVYLQMNSLKPEDTAVYYCNAGYWYDGPDYIPEYDYWGQGTQVTVSS", "polyreactivity (PSR sort gate)": "low polyreactivity"}
{"sequence": "QVQLVESGGGLVQAGGSLRLSCAASGITFTGYAMGWYRQAPGKERELVAAITWSSGSTYYADSVKGRFTISRDNAKNTVYLQMNSLKPEDTAVYYCNTDYGRYLYYRYGYWGQGTQVTVSS", "polyreactivity (PSR sort gate)": "low polyreactivity"}
{"sequence": "QVQLVESGGGLVQAGGSLRLSCAASGITFTKYVMRWYRQAPGKERELVATIRWGASSTHYADSVKGRFTISRDNAKNTVYLQMNSLKPEDTAVYYCNADGWYGAVYWWFYGFDYWGQGTQVTVSS", "polyreactivity (PSR sort gate)": "low polyreactivity"}
{"sequence": "QVQLVESGGGLVQAGGSLRLSCAASGITFTQYAMGWYRQAPGKERELVAAISKRGGRTYYADSVKGRFTISRDNAKNTVYLQMNSLKPEDTAVYYCATVPYGEVDYWGQGTQVTVSS", "polyreactivity (PSR sort gate)": "high polyreactivity"}
{"sequence": "QVQLVESGGGLVQAGGSLRLSCAASGITFTRNAMGWYRQAPGKERELVAVITSSGRTKYADSVKGRFTISRDNAKNTVYLQMNSLKPEDTAVYYCAKVLFGTVPYGYWGHGTQVTVSS", "polyreactivity (PSR sort gate)": "high polyreactivity"}
{"sequence": "QVQLVESGGGLVQAGGSLRLSCAASGITFTSYAMGWYRQAPGKERELVAAISWSGDRTYYADSVKGRFTISRDNAKNTVYLQMNSLKPEDTAVYYCAAEWVSPWTGPGFDYWGQGTQVTVSS", "polyreactivity (PSR sort gate)": "high polyreactivity"}
{"sequence": "QVQLVESGGGLVQAGGSLRLSCAASGITFTTYAMGWYRQAPGKERELVATINRGSRTNYADSVKGRFTISRDNAKNTVYLQMNSLKAEDTAVYYCAAHYTTFIPSPDGDYLGQGTQVTVSS", "polyreactivity (PSR sort gate)": "low polyreactivity"}
{"sequence": "QVQLVESGGGLVQAGGSLRLSCAASGITFTYYAMGWYRQAPGKVRELVAGISSGTRTYYADSVKGRFTISRDNAKNTVYLQMNSLKPEDTAVYYCAARTGSRYSRGDYWGHGTQVTVSS", "polyreactivity (PSR sort gate)": "high polyreactivity"}
{"sequence": "QVQLVESGGGLVQAGGSLRLSCAASGITFVDYDMGWYRQAPGKERELVAAITTGSSTYYADSVKGRFTISRDNAKNTVYLQMNSLKPEDTAVYYCARVFEYDYYQQWSYGYWGQGTQVTVSS", "polyreactivity (PSR sort gate)": "low polyreactivity"}
{"sequence": "QVQLVESGGGLVQAGGSLRLSCAASGITFVFYAMGWYRQAPGKERELVAAISTGGSTNYADTVKGRFTISRDNAKNTVYFQMNSLKPEDTAVYYCAAQYFISISKYDYWGQGTQVTVSS", "polyreactivity (PSR sort gate)": "low polyreactivity"}
{"sequence": "QVQLVESGGGLVQAGGSLRLSCAASGITFVGYAMGWYRQAPGKERELVAVINTSSSTYYADSVKGRFTISRDNAKNTVYLQMNSLKPVDTAVYYCADYAYYRYFIPAVLYDYWGQGTQVTVSS", "polyreactivity (PSR sort gate)": "low polyreactivity"}
{"sequence": "QVQLVESGGGLVQAGGSLRLSCAASGITFVHYAMGWSRQAPGKERELVAAITVGDGGTYYADSVKGRFTISRDNAKNTVYLQMNSLKPEDTAVYYCAAGFYSYSWYVKLAYGYWGQGIQVTVSS", "polyreactivity (PSR sort gate)": "low polyreactivity"}
{"sequence": "QVQLVESGGGLVQAGGSLRLSCAASGITFVKNVMGWYRQAPGKERELVAAISTIGARTYYADSVKGRFTISRDNAKNTVYLQMNSLKPEDTAVYYCAAENYPRRPRYDYWGQGTQVTVSS", "polyreactivity (PSR sort gate)": "high polyreactivity"}
{"sequence": "QVQLVESGGGLVQAGGSLRLSCAASGITFVRYAMGWYRQAPGKERELVAAINFSGGNTYYADSVKGRFTISRDNAKNTVYLQMNSLKPEDTAVYYCNAKRNYVRGRQGDWYIGYGYWGQGTQVTVSS", "polyreactivity (PSR sort gate)": "high polyreactivity"}
{"sequence": "QVQLVESGGGLVQAGGSLRLSCAASGITFVRYAMGWYRQAPGKERELVAAINSDGNTYYADSVKGRFTISRDTAKNTVYLQLNSLKPEDTACYYCAAGQGAGVDYWGQGTQVTVSS", "polyreactivity (PSR sort gate)": "high polyreactivity"}
{"sequence": "QVQLVESGGGLVQAGGSLRLSCAASGITFVYYAMGWYRQAPGKERELVAGIDWSGGSTYYADSVKGRFTISRDNAKNTVYLQMNSLKPEDTAVYYCAAEFWLSTDFYYWGQGTQVTVSS", "polyreactivity (PSR sort gate)": "high polyreactivity"}
{"sequence": "QVQLVESGGGLVQAGGSLRLSCAASGITFVYYTMGWYRQAPGKERELVASITWDGGSTYYADSVKGRFTISRDNAKNTVYLQMNSLKPEDTAVYYCNRDRVSGGKYNYWGQGTQVTVSS", "polyreactivity (PSR sort gate)": "low polyreactivity"}
{"sequence": "QVQLVESGGGLVQAGGSLRLSCAASGITFWQNTMGWYRQAPGKERELVAAISWTGGRTYYADSVKGRFTISRDNAKNTVYLQMNSLKPEDTAVYYCNTGHEEDEDDYWGQGTQVTVSS", "polyreactivity (PSR sort gate)": "low polyreactivity"}
{"sequence": "QVQLVESGGGLVQAGGSLRLSCAASGITFWRYALGWYRQAPGKEMELVAASRWSGSTYADSVKGRFTISRDNAKNTVYLQMNSLKPEDTAVYYCAAYPIGGYHDMDYWGQGTQVTVSS", "polyreactivity (PSR sort gate)": "high polyreactivity"}
{"sequence": "QVQLVESGGGLVQAGGSLRLSCAASGITFWTYAMGWYRQAPGKERELVARISKSGARTFYADSVKGRFTLSRDNAKNTVYLQMNSLKPEDTAVYYCAADFRSNYDYWGQGTQVTVSS", "polyreactivity (PSR sort gate)": "high polyreactivity"}
{"sequence": "QVQLVESGGGLVQAGGSLRLSCAASGITFWYNAMGWYRQAPGKERELVAAITRTGSTNYADSVKGRFTISRDNAKNTVYLQMNSLKPEDTAVYYCAAYLGWPWGYYSWGQGTQVTVSS", "polyreactivity (PSR sort gate)": "high polyreactivity"}
{"sequence": "QVQLVESGGGLVQAGGSLRLSCAASGITFWYYAMGWYRQAPGKERELVAAITRSGRTNYADSVKGRFTISRDNAKNTVYLQMNSLKPEDTAVYYCAVYLYSFSPRYYYWGQGTQVTVSS", "polyreactivity (PSR sort gate)": "low polyreactivity"}
{"sequence": "QVQLVESGGGLVQAGGSLRLSCAASGITFWYYAMGWYRQEPGKERELVAAISSSGGRTTYADSVKGRFTISRDNAKNTVYLQMNSLKPEDTAVYYCNADRRRYQHRRGSSVYLYDYWGQGTQVTVSS", "polyreactivity (PSR sort gate)": "high polyreactivity"}
{"sequence": "QVQLVESGGGLVQAGGSLRLSCAASGITFYAYVMGWYRQAPGKERELVAAISGGGSTYYADSVKGRFTISRDNAKNTVYLQMNSLKPEDTAVYYCNAELSFWDLGYDYWGQGTQVTVSS", "polyreactivity (PSR sort gate)": "low polyreactivity"}
{"sequence": "QVQLVESGGGLVQAGGSLRLSCAASGITFYDNAMGWYRPAPGKEWELVAGISYDGDSTYADSVKGRFTISRDNAKNTVYLQINSLKPEDTAVYYCAALGPYDWLWAGDYWGQGTQVTVSS", "polyreactivity (PSR sort gate)": "low polyreactivity"}
{"sequence": "QVQLVESGGGLVQAGGSLRLSCAASGITFYDNVMGWYRQAPGKERELVAAITSGGSTNYADSVKGRFTISRDNAKNTVYFQMNRLKPEDTAVYYCAAQPRVDYEFPYRYGYWGQGTQVTVSA", "polyreactivity (PSR sort gate)": "low polyreactivity"}
{"sequence": "QVQLVESGGGLVQAGGSLRLSCAASGITFYDYAMGWYRPAPGKERELVAAINSGDSTNYADSVKGRFTISRDNAKNTVYLQMNSLKPEDTAVYYCAADRYYYSWYTIWYRERIYYWGQGTQVTVSS", "polyreactivity (PSR sort gate)": "low polyreactivity"}
